Reference: the supplement of paper PMC9112550, “Optimization of the antimicrobial peptide Bac7 by deep mutational scanning” (BMC Biology, 2022)

tested on: Escherichia coli TOP10; assay: shrunken log2 fold change of peptide-encoding DNA abundance (4.5 h post-induction vs induction); higher = less antimicrobial activity (less host growth inhibition); details: time post-induction: 4.5 h; library: site-saturation at positions 5, 18, 19, 20
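Note: peptides expressed intracellularly from a pBAD plasmid library in pooled LB shake-flask culture, induced with 0.3% L-arabinose, DNA abundance read by NGS, three biological replicates, DESeq2 with apeglm shrinkage.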

Row | Sequence | shrunken log2 fold change
1 | RRIRNRPPRLPRPRPRPFLGPRP | -0.00194
2 | RRIRPRPPRLPRPRPRPNAVPRP | 0.0397
3 | RRIRGRPPRLPRPRPRPGAHPRP | 0.755
4 | RRIRGRPPRLPRPRPRPECMPRP | 1.49
5 | RRIRFRPPRLPRPRPRPHNRPRP | 0.0584
6 | RRIRSRPPRLPRPRPRPACFPRP | 1.54
7 | RRIRPRPPRLPRPRPRPYSIPRP | -0.0708
8 | RRIRPRPPRLPRPRPRPLGFPRP | 0.49
9 | RRIRTRPPRLPRPRPRPYHIPRP | -1.06
10 | RRIRWRPPRLPRPRPRPSYPPRP | -0.254
11 | RRIRTRPPRLPRPRPRPAKRPRP | 0.0872
12 | RRIRDRPPRLPRPRPRPTYAPRP | 0.0176
13 | RRIRHRPPRLPRPRPRPQNAPRP | -0.135
14 | RRIRQRPPRLPRPRPRPRPHPRP | 0.483
15 | RRIRERPPRLPRPRPRPCWFPRP | -0.0254
16 | RRIRYRPPRLPRPRPRPVDTPRP | -0.204
17 | RRIRPRPPRLPRPRPRPHHHPRP | -0.532
18 | RRIRERPPRLPRPRPRPDAFPRP | -0.038
19 | RRIRHRPPRLPRPRPRPRWRPRP | 0.355
20 | RRIRGRPPRLPRPRPRPRQRPRP | 0.815
21 | RRIRIRPPRLPRPRPRPEIWPRP | -0.18
22 | RRIRDRPPRLPRPRPRPQNHPRP | -0.34
23 | RRIRQRPPRLPRPRPRPSPLPRP | 0.0509
24 | RRIRERPPRLPRPRPRPFDFPRP | -0.146
25 | RRIRQRPPRLPRPRPRPNEPPRP | -0.0605

Row | Sequence | shrunken log2 fold change
26 | RRIRFRPPRLPRPRPRPQIGPRP | -0.128
27 | RRIRLRPPRLPRPRPRPHKWPRP | -0.0343
28 | RRIRTRPPRLPRPRPRPPTQPRP | 0.282
29 | RRIRDRPPRLPRPRPRPHIMPRP | -0.981
30 | RRIRFRPPRLPRPRPRPCQWPRP | 0.0155
31 | RRIRQRPPRLPRPRPRPCDMPRP | -0.129
32 | RRIRMRPPRLPRPRPRPAIFPRP | 0.243
33 | RRIRVRPPRLPRPRPRPGLKPRP | 0.049
34 | RRIRFRPPRLPRPRPRPPWHPRP | 0.087
35 | RRIRKRPPRLPRPRPRPTTKPRP | -0.0244
36 | RRIRRRPPRLPRPRPRPLCHPRP | 0.182
37 | RRIRSRPPRLPRPRPRPTEQPRP | -0.0196
38 | RRIRSRPPRLPRPRPRPIEPPRP | 0.0268
39 | RRIRLRPPRLPRPRPRPWCWPRP | 0.0542
40 | RRIRRRPPRLPRPRPRPIQPPRP | -0.0245
41 | RRIRYRPPRLPRPRPRPAFMPRP | -0.658
42 | RRIRQRPPRLPRPRPRPLHLPRP | -0.617
43 | RRIRKRPPRLPRPRPRPPWWPRP | 0.777
44 | RRIRLRPPRLPRPRPRPLNNPRP | -0.593
45 | RRIRTRPPRLPRPRPRPNGKPRP | -0.189
46 | RRIRWRPPRLPRPRPRPHAHPRP | 0.0336
47 | RRIRHRPPRLPRPRPRPYEMPRP | -0.383
48 | RRIRDRPPRLPRPRPRPNAEPRP | 0.359
49 | RRIRRRPPRLPRPRPRPCTEPRP | 0.106
50 | RRIRHRPPRLPRPRPRPAKRPRP | -0.132

Row | Sequence | shrunken log2 fold change
51 | RRIRGRPPRLPRPRPRPEVVPRP | 0.918
52 | RRIRDRPPRLPRPRPRPTSWPRP | 0.989
53 | RRIRKRPPRLPRPRPRPIQRPRP | -0.0846
54 | RRIRMRPPRLPRPRPRPWFQPRP | 0.134
55 | RRIRWRPPRLPRPRPRPETMPRP | 0.569
56 | RRIRCRPPRLPRPRPRPGKPPRP | 0.506
57 | RRIRFRPPRLPRPRPRPCIFPRP | -0.361
58 | RRIRMRPPRLPRPRPRPEEAPRP | 3.94
59 | RRIRVRPPRLPRPRPRPSGQPRP | 0.0937
60 | RRIRERPPRLPRPRPRPCMFPRP | -0.531
61 | RRIRPRPPRLPRPRPRPLEVPRP | -0.007
62 | RRIRLRPPRLPRPRPRPCEFPRP | -0.032
63 | RRIRARPPRLPRPRPRPTGYPRP | 0.191
64 | RRIRCRPPRLPRPRPRPRPKPRP | 0.901
65 | RRIRWRPPRLPRPRPRPFLWPRP | 0.0802
66 | RRIRDRPPRLPRPRPRPAVLPRP | -0.014
67 | RRIRNRPPRLPRPRPRPCVYPRP | -0.215
68 | RRIRWRPPRLPRPRPRPEYYPRP | -0.13
69 | RRIRTRPPRLPRPRPRPCFRPRP | -0.0887
70 | RRIRARPPRLPRPRPRPDNPPRP | 0.0396
71 | RRIRMRPPRLPRPRPRPPNEPRP | 0.2
72 | RRIRTRPPRLPRPRPRPEQAPRP | 0.173
73 | RRIRYRPPRLPRPRPRPENDPRP | -0.342
74 | RRIRYRPPRLPRPRPRPFVFPRP | -0.95
75 | RRIRHRPPRLPRPRPRPRKLPRP | -0.141

Row | Sequence | shrunken log2 fold change
76 | RRIRQRPPRLPRPRPRPKNFPRP | -0.0816
77 | RRIRNRPPRLPRPRPRPWTHPRP | -0.0174
78 | RRIRLRPPRLPRPRPRPHTLPRP | -0.224
79 | RRIRIRPPRLPRPRPRPGAFPRP | -0.294
80 | RRIRVRPPRLPRPRPRPVHCPRP | -0.0781
81 | RRIRTRPPRLPRPRPRPEYEPRP | -0.0445
82 | RRIRARPPRLPRPRPRPPMDPRP | 0.515
83 | RRIRFRPPRLPRPRPRPDNHPRP | -0.232
84 | RRIRKRPPRLPRPRPRPWRAPRP | 0.5
85 | RRIRDRPPRLPRPRPRPHITPRP | -0.7
86 | RRIRARPPRLPRPRPRPDNSPRP | -0.269
87 | RRIRLRPPRLPRPRPRPRGNPRP | 0.0735
88 | RRIRHRPPRLPRPRPRPHSTPRP | -0.349
89 | RRIRGRPPRLPRPRPRPMIKPRP | 2.22
90 | RRIRDRPPRLPRPRPRPCCNPRP | 0.255
91 | RRIRPRPPRLPRPRPRPMQKPRP | 0.0491
92 | RRIRWRPPRLPRPRPRPFQTPRP | -0.00783
93 | RRIRERPPRLPRPRPRPPKHPRP | -0.0654
94 | RRIRQRPPRLPRPRPRPHGHPRP | -0.113
95 | RRIRFRPPRLPRPRPRPEYPPRP | -0.617
96 | RRIRFRPPRLPRPRPRPWDCPRP | 0.00208
97 | RRIRGRPPRLPRPRPRPFGKPRP | -0.144
98 | RRIRVRPPRLPRPRPRPPEWPRP | -0.00654
99 | RRIRVRPPRLPRPRPRPLWSPRP | -0.0257
100 | RRIRMRPPRLPRPRPRPRMMPRP | 0.476

Row | Sequence | shrunken log2 fold change
101 | RRIRQRPPRLPRPRPRPPQFPRP | 0.076
102 | RRIRNRPPRLPRPRPRPYKCPRP | -0.13
103 | RRIRKRPPRLPRPRPRPPLYPRP | 0.948
104 | RRIRLRPPRLPRPRPRPSFHPRP | -0.457
105 | RRIRGRPPRLPRPRPRPWVLPRP | 0.222
106 | RRIRDRPPRLPRPRPRPPVNPRP | 0.519
107 | RRIRYRPPRLPRPRPRPFNWPRP | -0.238
108 | RRIRLRPPRLPRPRPRPRYPPRP | 0.318
109 | RRIRCRPPRLPRPRPRPAMSPRP | 0.0552
110 | RRIRWRPPRLPRPRPRPFFQPRP | 0.329
111 | RRIRHRPPRLPRPRPRPNESPRP | -0.506
112 | RRIRGRPPRLPRPRPRPLAMPRP | 0.94
113 | RRIRPRPPRLPRPRPRPWKQPRP | 0.0524
114 | RRIRPRPPRLPRPRPRPVAEPRP | 0.394
115 | RRIRKRPPRLPRPRPRPLKFPRP | -0.118
116 | RRIRNRPPRLPRPRPRPTNWPRP | 0.31
117 | RRIRQRPPRLPRPRPRPRVFPRP | -0.0984
118 | RRIRLRPPRLPRPRPRPEWVPRP | 0.36
119 | RRIRARPPRLPRPRPRPPQPPRP | 1.03
120 | RRIRDRPPRLPRPRPRPEVKPRP | -0.0257
121 | RRIRARPPRLPRPRPRPGGEPRP | 0.694
122 | RRIRNRPPRLPRPRPRPLNKPRP | -0.256
123 | RRIRRRPPRLPRPRPRPAQKPRP | 0.547
124 | RRIRARPPRLPRPRPRPDANPRP | 0.275
125 | RRIRGRPPRLPRPRPRPLWKPRP | 0.819

Row | Sequence | shrunken log2 fold change
126 | RRIRCRPPRLPRPRPRPTTVPRP | -0.356
127 | RRIRERPPRLPRPRPRPANIPRP | -0.465
128 | RRIRCRPPRLPRPRPRPDNPPRP | -0.137
129 | RRIRDRPPRLPRPRPRPKVDPRP | -0.118
130 | RRIRSRPPRLPRPRPRPMLSPRP | 0.149
131 | RRIRTRPPRLPRPRPRPQEMPRP | -0.0617
132 | RRIRRRPPRLPRPRPRPEHCPRP | -0.00244
133 | RRIRERPPRLPRPRPRPWIWPRP | 0.164
134 | RRIRNRPPRLPRPRPRPTCNPRP | -0.288
135 | RRIRKRPPRLPRPRPRPKSEPRP | 0.0409
136 | RRIRKRPPRLPRPRPRPHVYPRP | 0.22
137 | RRIRVRPPRLPRPRPRPIICPRP | -0.448
138 | RRIRQRPPRLPRPRPRPHTGPRP | -0.18
139 | RRIRQRPPRLPRPRPRPVTPPRP | -0.00477
140 | RRIRHRPPRLPRPRPRPTWGPRP | 0.0618
141 | RRIRVRPPRLPRPRPRPVLWPRP | 0.453
142 | RRIRMRPPRLPRPRPRPDVHPRP | 0.109
143 | RRIRGRPPRLPRPRPRPWANPRP | 0.0528
144 | RRIRIRPPRLPRPRPRPAIRPRP | -0.161
145 | RRIRIRPPRLPRPRPRPLWGPRP | 0.0579
146 | RRIRHRPPRLPRPRPRPSCSPRP | -0.876
147 | RRIRSRPPRLPRPRPRPKFKPRP | -0.121
148 | RRIRTRPPRLPRPRPRPSPKPRP | 2.46
149 | RRIRGRPPRLPRPRPRPIKGPRP | -0.0627
150 | RRIRSRPPRLPRPRPRPKSMPRP | -0.269
